Laboratory results as given in patent US20140140998.

T1: GST-TβRI intracellular domain fusion protein
T1 chain: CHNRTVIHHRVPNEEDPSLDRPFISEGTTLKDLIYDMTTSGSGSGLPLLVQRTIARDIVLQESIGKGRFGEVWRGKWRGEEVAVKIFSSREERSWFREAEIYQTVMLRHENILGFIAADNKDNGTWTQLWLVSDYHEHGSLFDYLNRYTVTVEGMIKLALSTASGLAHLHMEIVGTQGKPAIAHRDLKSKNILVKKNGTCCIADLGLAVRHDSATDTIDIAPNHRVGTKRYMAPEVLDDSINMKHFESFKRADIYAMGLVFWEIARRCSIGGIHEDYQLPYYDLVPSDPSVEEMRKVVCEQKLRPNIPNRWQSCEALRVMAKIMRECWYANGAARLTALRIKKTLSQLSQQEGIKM

T2: type I receptor of transforming growth factor beta (TβRI), endogenous, full length
T2 chain: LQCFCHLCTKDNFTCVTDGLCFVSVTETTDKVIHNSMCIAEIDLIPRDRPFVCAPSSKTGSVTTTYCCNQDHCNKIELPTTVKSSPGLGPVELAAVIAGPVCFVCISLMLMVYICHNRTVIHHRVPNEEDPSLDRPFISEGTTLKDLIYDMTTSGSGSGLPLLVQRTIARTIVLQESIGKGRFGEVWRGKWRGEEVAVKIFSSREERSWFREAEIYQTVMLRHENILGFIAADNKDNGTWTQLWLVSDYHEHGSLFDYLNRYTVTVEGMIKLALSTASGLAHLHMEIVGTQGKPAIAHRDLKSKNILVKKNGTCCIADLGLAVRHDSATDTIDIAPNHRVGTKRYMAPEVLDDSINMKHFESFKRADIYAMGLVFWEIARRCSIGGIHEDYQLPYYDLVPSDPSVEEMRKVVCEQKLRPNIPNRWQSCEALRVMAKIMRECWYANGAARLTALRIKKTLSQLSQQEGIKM


Legend:
[1] = target: T1, GST-TβRI intracellular domain fusion …
[2] = target: T2, type I receptor of transforming growth …

Protein | polyubiquitination of TβRI in an in vitro ubiquitination assay [1] | Lys63-linked polyubiquitination of TβRI and formation of the TβRI ICD after TRAF6 siRNA [2]
recombinant glutathione-S-transferase-tagged TRAF6 (GST-TRAF6) fusion protein (protein) MSLLNCENSCGSSQSESDCCVAMASSCSAVTKDDSVGGTASTGNLSSSFMEEIQGYDVEFDPPLESKYECPICLMALREAVQTPCGHRFCKACIIKSIRDAGHKCPVDNEILLENQLFPDNFAKREILSLMVKCPNEGCLHKMELRHLEDHQAHCEFALMDCPQCQRPFQKFHINIHILKDCPRRQVSCDNCAASMAFEDKEIHDQNCPLANVICEYCNTILIREQMPNHYDLDCPTAPIPCTFSTFGCHEKMQRNHLARHLQENTQSHMRMLAQAVHSLSVIPDSGYISEVRNFQETIHQLEGRLVRQDHQIRELTAKMETQSMYVSELKRTIRTLEDKVAEIEAQQCNGIYIWKIGNFGMHLKCQEEEKPVVIHSPGFYTGKPGYKLCMRLHLQLPTAQRCANYISLFVHTMQGEYDSHLPWPFQGTIRLTILDQSEAPVRQNHEEIMDAKPELLAFQRPTIPRNPKGFGYVTFMHLEALRQRTFIKDDTLLVRCEVSTRFDMGSLRREGFQPRSTDAGV | TRAF6 was shown to induce the polyubiquitination of TβRI in an in vitro ubiquitination assay | –
tumor necrosis factor receptor-associated factor 6 (TRAF6), endogenous (protein) MSLLNCENSCGSSQSESDCCVAMASSCSAVTKDDSVGGTASTGNLSSSFMEEIQGYDVEFDPPLESKYECPICLMALREAVQTPCGHRFCKACIIKSIRDAGHKCPVDNEILLENQLFPDNFAKREILSLMVKCPNEGCLHKMELRHLEDHQAHCEFALMDCPQCQRPFQKFHINIHILKDCPRRQVSCDNCAASMAFEDKEIHDQNCPLANVICEYCNTILIREQMPNHYDLDCPTAPIPCTFSTFGCHEKMQRNHLARHLQENTQSHMRMLAQAVHSLSVIPDSGYISEVRNFQETIHQLEGRLVRQDHQIRELTAKMETQSMYVSELKRTIRTLEDKVAEIEAQQCNGIYIWKIGNFGMHLKCQEEEKPVVIHSPGFYTGKPGYKLCMRLHLQLPTAQRCANYISLFVHTMQGEYDSHLPWPFQGTIRLTILDQSEAPVRQNHEEIMDAKPELLAFQRPTIPRNPKGFGYVTFMHLEALRQRTFIKDDTLLVRCEVSTRFDMGSLRREGFQPRSTDAGV | – | a knock-down of endogenous TRAF6 in PC-3U cells with an anti-TRAF6 siRNA also resulted in loss of both Lys63-linked polyubiquitination in TβRI and the formation of the TβRI ICD in response to TGFβ stimulation
